The values that follow come from IntAct's records for PubMed 22135460.

B1: Late transcription coactivator (Enterobacteria phage T4), P13338 (parent)
chain: MTQFSLNDIRPVDETGLSEKELSIKKEKDEIAKLLDRQENGFIIEKMVEEFGMSYLEATTAFLEENSIPETQFAKFIPSGIIEKIQSEAIDENLLRPSVVRCEKTNTLDFLL

Variants of B1 are the subject of the experiment. The conditions noted are these: with rpob_ecoli rpoB.
As for MTQFSLNDIRPVDETGLSEKELSIKKEKDEIAKLLDRQENGFIIEKMVEEFGMSYLEATTAFLEENSIPKTQFAKFIPSGIIEKIQSEAIDENLLRPSVVRCEKTNTLDFLL [E70K], the “effect of a mutation on the interaction” value is given as “decreasing interaction strength”.
